# In patent publication EP4474393A1:
# How the values were obtained:
# Test in all cases: cell-based or functional assay
# [1] = biological target: HIV-1 envelope proteins of the panel of 185 pseudoviruses generated from the Antibody Mediated Prevention Trials
# [2] = biological target: HIV-1 envelope proteins of the multiclade panel of 119 pseudoviruses
# [3] = biological target: HIV-1 envelope proteins of the panel of 12 global reference pseudovirus strains of HIV-1
# [4] = biological target: HIV-1 envelope proteins of the panel of 7 pseudoviruses selected from the 'Resistant panel to CD4bs bNAbs'
# [5] = biological target: HIV-1 envelope proteins of the panel of 9 pseudoviruses resistant against CD4bs bNAbs
# [6] = biological target: HIV-1 envelope proteins of the panel of 100 clade C HIV-1 pseudoviruses
# [7] = biological target: HIV-1 envelope proteins of the panel of 8 pseudoviruses insensitive to neutralization by CD4bs bNAbs
Binder,"geometric mean IC50, TZM-bl cell pseudovirus neutralization assay [3] [µg/mL]","neutralization breadth, TZM-bl cell pseudovirus neutralization assay [3] [%]",further results
"04_A06 (antibody, V domains shown) VH: SVRLDQSGTAVKKPGASVRVSCRAPDSFTVYRPRLSAYFIGEFNIHWLRQAPGQGLEWLGFVNIFRGAVKYSSRFQGRITITRDTSSETSYLDLGALKADDTATYYCAWDKNVDDNPWRLDSWGQGTLVIVSS VL: YIQVTQSPSSLSASIGDTITVACEVSQDVGWAVNWYHQRPGRPPYNLIYTAHNLAPGVASRFRGSRVGTYFTLTINNLLPEDVGTYYCQVFDSFAPGGTRVDL",0.038,100,"GeoMean IC50, TZM-bl cell pseudovirus neutralization assay [1]: 0.084 µg/mL; neutralization breadth, TZM-bl cell pseudovirus neutralization assay [1]: < 98%; geometric mean IC50, TZM-bl cell pseudovirus neutralization assay [2]: 0.036 µg/mL; neutralization breadth, TZM-bl cell pseudovirus neutralization assay, up to 10 µg/ml [2]: 99%; IC50, TZM-bl cell pseudovirus neutralization assay [4]: 0.153 µg/mL; neutralization breadth, TZM-bl cell pseudovirus neutralization assay, up to 10 µg/ml [4]: 86%; neutralization breadth, TZM-bl cell pseudovirus neutralization assay, up to 10 µg/ml [5]: 100%; geometric mean IC50, TZM-bl cell pseudovirus neutralization assay [6]: 0.057 µg/mL; neutralization breadth, TZM-bl cell pseudovirus neutralization assay, up to 10 µg/ml [6]: 99%"
"01_B01 (antibody, V domains shown) VH: HVQLWQSGAEVKKPGASVKISCAAWGFGTTSGYSFRDYRIHWVRQVPGQGFQWMGHIQPRYGAVNYAHQFQGRITMTREVSFDASGGTAYMELRSLRSDDTATYYCVTHKLYDGEDASDLAWRLDPWGQGTRVTVSS VL: GVHLTQSPASLSASVGDRVTFTCQASQDITNAINWYQLRPGKTPKLMIHDGSTLRRGVPSRFAGGGFGTKFTFTIDNLQPEDLATYFCQHYEFFPPAGTQVELN",< 0.05,100,–
"01_D03 (antibody, V domains shown) VH: HVQLWQSGAEVKKPGASVKISCSAWGFGTTSGYSFRDYRVHWVRHIAGQGFQWMGHMQPRYGAVNYARQFQGRITMTREVSFDASGGTAYMELRSLRSDDTAVYYCVTHKLYDGEDASDLTWRLDPWGQGTRVIVSS VL: GVHLTQSPASLSASVGDRVTFTCQASQDITNAINWYQLRPGKTPKLMIHDGSTLRRGVPSRFAGSGFGTKFTFTIDNLQPEDLATYFCQHYEFFPPVGTQVELN",0.021,100,"neutralization breadth, TZM-bl cell pseudovirus neutralization assay [7]: 88%"
"04_B09 (antibody, V domains shown) VH: SVRLDQSGTAVKKPGASVRVSCRAPDSFTVYRPRLSAYFIGEFNIHWLRQAPGQGLEWLGFVNIFRGAVKYSSAFRGRITITRDTSLETSYLDLGALKPDDTATYFCAWDKNVDDNPWRLDSWGQGTLVVVSS VL: YIQVTQSPSSLSASVGDTITVACQVSQDVGWAVNWYHQRPGRPPYNLIYTTSNLAPGVASRFRGTRVATYFTLTINNLLPEDVGTYYCQVFESFAPGGTRVDLR",< 0.05,100,–
"05_C07 (antibody, V domains shown) VH: HVQLWQSGAEVKKPGASVKISCSAWGFGTRSGYTFRDYRIHWVRQVPRQGFEWMGHLHPAYGAVNYARQFQGRIIMTREVSFDGSGGTVYMELRSLRSDDTATYYCVTHKLYDGEDASDLTWRLDPWGQGTRVTVSS VL: GVSLTQSPASLCASVGDRVTFTCQASQDITNAINWYQLRPGKTPKLMIHDGSTLRRGVPSRFAGSGFGTRFTFTIDNLQPEDLATYFCQHYEFFPPAGTQVDFN",< 0.05,100,–
